From the supplement of paper PMC9233669
Fewer inactive variants are shown than the library holds.

What was measured:
[1] = tested on: biotinyl-Phe-oxazolone; assay: self-aminoacylation, catalytic enhancement (BFO) (fold over background); higher = more active; k-Seq, kA / k0A0; sequences stand for … in GGGAAUGGAUCCACAUCUACGAAUUC…UUCACUGCAGACUUGACGAAGCUG
Method in brief: (§1)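 Mutagenized RNA pools with a 21-nt variable region (0.43 μM) were reacted with each biotinyl-aminoacyl-oxazolone at 2–1250 μM for 90 minutes at room temperature, in 50 μL HEPES/NaCl/KCl/MgCl2/CaCl2 buffer containing 5% acetonitrile at pH 6.9–7.0. RNA captured on streptavidin was quantified by triplicate qPCR and by Illumina sequencing. The fraction reacted for each sequence was fit to a pseudo-first-order model with bootstrapping, and catalytic enhancement is the median kA divided by the uncatalyzed rate, taken as the low-activity peak of a bimodal Gaussian fit.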

[2] = tested on: biotinyl-Ile-oxazolone; assay: self-aminoacylation, catalytic enhancement (BIO) (fold over background); higher = more active; k-Seq, kA / k0A0; sequences stand for … in GGGAAUGGAUCCACAUCUACGAAUUC…UUCACUGCAGACUUGACGAAGCUG
Method in brief: as §1

[3] = tested on: biotinyl-Met-oxazolone; assay: self-aminoacylation, catalytic enhancement (BMO) (fold over background); higher = more active; k-Seq, kA / k0A0; sequences stand for … in GGGAAUGGAUCCACAUCUACGAAUUC…UUCACUGCAGACUUGACGAAGCUG
Method in brief: as §1

[4] = tested on: biotinyl-Val-oxazolone; assay: self-aminoacylation, catalytic enhancement (BVO) (fold over background); higher = more active; k-Seq, kA / k0A0; sequences stand for … in GGGAAUGGAUCCACAUCUACGAAUUC…UUCACUGCAGACUUGACGAAGCUG
Method in brief: as §1

[5] = tested on: biotinyl-Leu-oxazolone; assay: self-aminoacylation, catalytic enhancement (BLO) (fold over background); higher = more active; k-Seq, kA / k0A0; sequences stand for … in GGGAAUGGAUCCACAUCUACGAAUUC…UUCACUGCAGACUUGACGAAGCUG
Method in brief: as §1

[6] = tested on: biotinyl-Trp-oxazolone; assay: self-aminoacylation, catalytic enhancement (BWO) (fold over background); higher = more active; k-Seq, kA / k0A0; sequences stand for … in GGGAAUGGAUCCACAUCUACGAAUUC…UUCACUGCAGACUUGACGAAGCUG
Method in brief: as §1

Sequence | self-aminoacylation [1] | self-aminoacylation [2] | self-aminoacylation [3] | self-aminoacylation [4] | self-aminoacylation [5] | self-aminoacylation [6]
CUAAUUCAAACAAUCGGUCAG [Fam1A.1 aminoacylation ribozyme variant] | 1.46 | 0.602 | 0.583 | 0.546 | 0.566 | 0.765
UAGUUUGCGAAUAGUCGCAAG [Fam3.1 aminoacylation ribozyme variant] | 2.28 | 1.82 | 1.68 | 1.1 | 1.75 | 1.73
AUACACCUAGGACAUCGGGUG [Fam2.2 aminoacylation ribozyme variant] | 14.1 | 2.73 | 2.98 | 2.79 | 2.82 | 5.32
AUUUACCUAGGUCAUUGGGUG [Fam2.2 aminoacylation ribozyme variant] | 19.7 | 2.34 | 3.54 | 2.26 | 3.79 | 3.11
AUUACCCUAGUCCUCGAGUGA [Fam2.1 aminoacylation ribozyme variant] | 15.9 | 2.2 | 4.15 | 2.34 | 3.93 | 4.08
AAGUAUGCUAAUAGCCGCAAG [Fam3.1 aminoacylation ribozyme variant] | 5.73 | 1.49 | 1.06 | 1.05 | 1.16 | 2.58
AAGUUUGCUAAUAAACGCAAG [Fam3.1 aminoacylation ribozyme variant] | 1.12 | 0.774 | 0.833 | 0.667 | 0.687 | 0.97
AUUCUCCUACGUCAUCGGGUG [Fam2.2 aminoacylation ribozyme variant] | 57.3 | 4.89 | 6.97 | 5.36 | 9.67 | 6.69
CCACACUUCAAGUAAUCGGGC [Fam1B.1 aminoacylation ribozyme variant] | 1.28 | 1.68 | 1.64 | 1.69 | 1.54 | 1.73
AUUACCCUGGUUAUUGAGUGA [Fam2.1 aminoacylation ribozyme variant] | 102 | 6.24 | 14.4 | 6.4 | 15.1 | 17.8
CUACUUCGAACAAGCGGUCUG [Fam1A.1 aminoacylation ribozyme variant] | 0.721 | 0.727 | 0.624 | 0.64 | 0.9 | 0.528
CUACUUUUAACAAUCGGUCUG [Fam1A.1 aminoacylation ribozyme variant] | 0.864 | 0.888 | 0.921 | 0.802 | 0.713 | 0.516
CUCCUUCAAACAAUCGGUCUG [Fam1A.1 aminoacylation ribozyme variant] | 59.2 | 1.1 | 1.29 | 1.2 | 2.04 | 32.3
AAGCUUGCUAAUCGUCGCAAG [Fam3.1 aminoacylation ribozyme variant] | 2.14 | 1.85 | 1.55 | 1.45 | 1.65 | 2.85
AUACUUCAAACAAUCAGUCUG [Fam1A.1 aminoacylation ribozyme variant] | 9.06 | 0.975 | 0.823 | 1.02 | 0.979 | 4.24
AAGUUUGCUCAUACUCGCAAG [Fam3.1 aminoacylation ribozyme variant] | 0.813 | 0.777 | 0.742 | 0.752 | 0.715 | 0.748
AUUACCCUGGUCAUCGAGUAG [Fam2.1 aminoacylation ribozyme variant] | 13.9 | 2.15 | 4.51 | 2.64 | 4.67 | 4.18
AUUACCCUGGACAUCGAGUGU [Fam2.1 aminoacylation ribozyme variant] | 5.95 | 1.51 | 3.35 | 2.66 | 3.35 | 4.38
AAGUUUGCCUAUAGUCGCAAG [Fam3.1 aminoacylation ribozyme variant] | 0.956 | 0.844 | 0.706 | 0.981 | 0.718 | 0.784
CCACGCUACAAGCAAUCGGUC [Fam1B.1 aminoacylation ribozyme variant] | 1.3 | 0.937 | 0.858 | 0.999 | 0.851 | 1.2
GAGUUUGCUUAUAGUCGCAAG [Fam3.1 aminoacylation ribozyme variant] | 2.28 | 1.65 | 1.44 | 1.39 | 1.24 | 1.75
CUAAUUCAAACUAUCGGUCUG [Fam1A.1 aminoacylation ribozyme variant] | 1.1 | 0.978 | 1.09 | 0.936 | 0.938 | 0.685
AAGUUUGCUCAUAGUUGCAAG [Fam3.1 aminoacylation ribozyme variant] | 1.04 | 0.916 | 0.916 | 0.772 | 0.896 | 0.888
AUUACCUUGGUCACCGAGUGA [Fam2.1 aminoacylation ribozyme variant] | 23.4 | 2.87 | 6.15 | 3.11 | 6.74 | 6.72
AUAACCCUGGUUAUCGAGUGA [Fam2.1 aminoacylation ribozyme variant] | 38.8 | 3.74 | 8.37 | 3.44 | 8.11 | 8.28
AAGUUUGCGAAUAGUCGAAAG [Fam3.1 aminoacylation ribozyme variant] | 0.796 | 1.05 | 1.17 | 0.733 | 1.11 | 0.83

Sequence | self-aminoacylation [1] | self-aminoacylation [2] | self-aminoacylation [3] | self-aminoacylation [4] | self-aminoacylation [5] | self-aminoacylation [6]
AUUCAACUAGGUCAUCGGGAG [Fam2.2 aminoacylation ribozyme variant] | 0.48 | 0.943 | 1.23 | 0.961 | 0.899 | 1.05
ACUACCCUGUUCAUCGAGUGA [Fam2.1 aminoacylation ribozyme variant] | 6.68 | 2.28 | 3.17 | 2.33 | 3.27 | 5.04
AAGUUUGCUAAUAGGCGUAAG [Fam3.1 aminoacylation ribozyme variant] | 0.828 | 0.669 | 0.735 | 0.735 | 0.66 | 0.664
AUGCACCUAGGUCUUCGGGUG [Fam2.2 aminoacylation ribozyme variant] | 40 | 3.64 | 4.93 | 4.2 | 4.14 | 5.59
GCACACUUCCAGCAAUCGGUC [Fam1B.1 aminoacylation ribozyme variant] | 1.1 | 2.01 | 1.55 | 2.31 | 1.73 | 2.11
AUUGACCUAGGUAAUCGGGUG [Fam2.2 aminoacylation ribozyme variant] | 15 | 3.19 | 2.92 | 3 | 3.86 | 3.73
AUUCACCUAGGUCAUAAGGUG [Fam2.2 aminoacylation ribozyme variant] | 6.42 | 1.98 | 3.33 | 1.69 | 3.48 | 2.59
AUUACCCUGCUCAUCGAGUGU [Fam2.1 aminoacylation ribozyme variant] | 1.08 | 0.991 | 1 | 0.78 | 0.916 | 1.36
AUUGCCCUGGUCAUCGAGAGA [Fam2.1 aminoacylation ribozyme variant] | 1.73 | 1.2 | 1.39 | 1.2 | 1.5 | 0.807
AAGUCUGCUUAUAGUCGCAAG [Fam3.1 aminoacylation ribozyme variant] | 1.42 | 0.895 | 1.18 | 0.822 | 1.25 | 0.87
CUACUUCAAUCGAUCGGUCUG [Fam1A.1 aminoacylation ribozyme variant] | 0.776 | 0.687 | 0.707 | 0.754 | 0.634 | 0.977
AUUCAACUAGGUCAUCCGGUG [Fam2.2 aminoacylation ribozyme variant] | 45.8 | 4.6 | 5.49 | 3.72 | 8.12 | 6.62
AUUCAACUACGUCAUCGGGUG [Fam2.2 aminoacylation ribozyme variant] | 26 | 3.26 | 4.57 | 2.95 | 6.07 | 4.72
AUUACCUUGGUUAUCGAGUGA [Fam2.1 aminoacylation ribozyme variant] | 44.2 | 3.66 | 8.15 | 4.03 | 7.92 | 9.73
CUACUUCAAACAAUCCGUCGG [Fam1A.1 aminoacylation ribozyme variant] | 1.23 | 0.947 | 0.867 | 0.98 | 0.901 | 0.636
AAGUUUGCUGAUAGCCGCAAG [Fam3.1 aminoacylation ribozyme variant] | 1.49 | 0.846 | 0.91 | 0.968 | 0.736 | 0.586
CCACACUUCAAUCAAUCGGUC [Fam1B.1 aminoacylation ribozyme variant] | 42.7 | 1.1 | 1.05 | 1.17 | 1.51 | 21.8
AUUACCCUGGUCAUCGAGGUA [Fam2.1 aminoacylation ribozyme variant] | 10.2 | 2.38 | 7.24 | 3.16 | 5.68 | 5.45
CUACUUCUAACAAUCCGUCUG [Fam1A.1 aminoacylation ribozyme variant] | 0.709 | 0.905 | 0.679 | 0.792 | 0.656 | 0.586
CCACAUUUCAAGGAAUCGGUC [Fam1B.1 aminoacylation ribozyme variant] | 1.67 | 1.52 | 1.34 | 1.31 | 1.49 | 1.28
CUAUUUCAAACAAACGGUCUG [Fam1A.1 aminoacylation ribozyme variant] | 1.2 | 0.961 | 0.923 | 0.971 | 0.72 | 0.586
UCACAUUUCAAGCAAUCGGUC [Fam1B.1 aminoacylation ribozyme variant] | 2.47 | 1.04 | 0.73 | 1.07 | 0.847 | 1.56
AAGUUUACUAAUACUCGCAAG [Fam3.1 aminoacylation ribozyme variant] | 1.55 | 1.26 | 1.18 | 1.18 | 1.06 | 1.37
AUUGACCUAGGUCAUCGGGUA [Fam2.2 aminoacylation ribozyme variant] | 355 | 20.4 | 47.1 | 16.7 | 59.5 | 31.5
AUUUACCUACGUCAUCGGGUG [Fam2.2 aminoacylation ribozyme variant] | 32.2 | 2.56 | 4.54 | 3.17 | 6.25 | 4.65
